Laboratory results taken from US20260234247A1.

B1: LK-RB1-56 (antibody, human IgG4 S228P, kappa, V domains shown)
VH: QVQLKQSGPGLVQPSQSLSITCSVSGFSLTNYGVHWVRQSPGKGLEWLGVIWRGGSTDNNAAFMSRLSITKDNSKSQVFFKMNSLQADDTAIYYCAKNSDFYGSSWYFDVWGTGTTVTVSS
VL: QIVLSQSPAILSASPGEKVTMTCRASSSVSFMHWYQQKPGSSPKPWIYATSNLASGVPARFSGSGSGTSYSLTISRVEAEDAATYYCQQWSRNPPTFGAGTKLELKR
B2: LK-RB1-58 (antibody, human IgG4 S228P, kappa, V domains shown)
VH: QVQLKQSGPGLVQPSQSLSITCTVSGFSLTTYGVHWVRQSPGKGLEWLGVIWRGGSTDYNAAFMSRLSITKDNSKSQVFFRMNSLQADDTARYYCAKNSLYYGSSWYFDVWGTGTTVTVSS
VL: QIVLSQSPAILSASPGEKVTMTCRASSSVSFMHWYQQKPGSSPKPWIYATSNLASGVPARFSGSGSGTSYSLTISRVEAEDAATYYCQQWSSNPPTFGGGTKLEIKR
B3: LK-RB2-27 (antibody, human IgG4 S228P, kappa, V domains shown)
VH: DVKLVESGGGLVKPGGSLKLSCAASGFTFSSYSMSWVRQTPEKRLEWVATISTGGSYTYYPDSVKGRFTISRDNAKNTLYLQMSSLKSEDTAMFYCTRGSMDYWGQGTSVTVSS
VL: DILMTQSPSSMSVSLGDTVSITCHASQDISSNIGWLQQKPGNSFKGLIYHGTNLEDGVPSRFSGSGSGADYSLTISSLESEDFADYYCVQYAQFPYTFGGGTKLEIKR
B4: LK-RB2-34 (antibody, human IgG4 S228P, kappa, V domains shown)
VH: DVKVVESGGGLVKPGGSLKLSCAASGFTFSSYSMSWVRQTPEKRLEWVATISTGSSYTYYSDSVKGRFTISRDNAKNTLYLQMSSLKSEDTAMFYCTRGSMDYWGQGTSVTVSS
VL: DILMTQSPSSMSVSLGDTVSITCHASQDISSNIGWLQQKPGNSFKGLIYHGINLEDGVPSRFSGSGSGADYSLTISSLESEDFADYYCVQYAQFPYTFGGGTKLEIKR
B5: LK-RB2-28 (antibody, human IgG4 S228P, kappa, V domains shown)
VH: DVKLVESGGGLVKPGGSLKLSCAASGFTFSSYSMSWVRQTPEKRLEWVATISTGGSYTYYPDSMKGRFTISRDNAKNTLYLQMSSLKSEDTAMFYCTRGSMDYWGQGTSVTVSS
VL: DILMTQSPSSMSVSLGDTVSIACHASQDISSNIGWLQQKPGNSFKGLIYHGTNLEDGVPSRFSGSGSGADYSLTISSLESEDFADYYCVQYAQFPYTFGGGTKLEIKR
B6: 15G8 (antibody, human IgG4 S228P, kappa, V domains shown)
VH: DVQLQGSGPGLVKPSETLSLTCSVTGYSITSGYYWNWIRQFPGKKLEWMGYISYDGSNNYNPSLKNRITISRDTSKNQFSLKLNSVTAADTATYYCAHGYSYYYAMDAWGQGTSVTVSS
VL: DIQMTQSPSSLSASVGDRVTITCRTSQDISNYLNWYQQKPGKAVKLLISYTSRLHSGVPSRFSGSGSGTDYTLTISSLQPEDFATYYCQQGNTLPTFGQGTKLEIKR
B7: LK-RB2-30 (antibody, human IgG4 S228P, kappa, V domains shown)
VH: EVQLVESGGGLVQPGGSLKLSCAASGFTFNTDGMSWVRQTPDKRLELVAIINSNGGSTYYPDSVKGRFTISRDNAKNTLYLQMSSLKSEDTAMYYCAREGSYGSWFAYWGQGTLVTVSA
VL: DIQMTQSPASLSVSVGETVTITCRASENINNNLAWYHQKQGKSPQLLVYAATNLADGVPSRFSGSGSGTQYSLKINSLQSEDFGSYYCQHFWGTPFTFGGGTKLEIKR
B8: LK-RB2-31 (antibody, human IgG4 S228P, kappa, V domains shown)
VH: QVQLQQPGAELVKPGASMKLSCKASGYTFTTYYMYWVKQRPGLGLEWIGGINPSNGGTTFNEKFKNKATLTVDKSSSTAYMQLRSLTSEDSAVYYCTRWRFFDVWGAGTTVTVSS
VL: SIVMTQTPEFLLVSAGDRVTITCKASQSVNNDVAWFQQKPGQSPKLLIYYASNRYTGVPDRFTGSGYGTDFTFTISTVQAEDLAIYFCQQDYSSPPTFGGATKLEIKR
B9: LK-RB2-25 (antibody, human IgG4 S228P, kappa, V domains shown)
VH: QVQLKESGPGLVAPSQSLSITCTVSGFSLTSYGVHWVRQPPGKGLEWLGVIWAGGSTKYNSALMSRLSINKDNSKSQVFLKMNSLQTDDTAMYYCARDQMVRSAMDYWGQGTSVTVSS
VL: DIQMIQSPSSMFASLGDRVSLSCRASQGIRGNLDWYQQKPGGTIKLLIYSTSNLNSAVPSRFSGSGSGSDYSLTISNLESEDFADYYCLQRNASPYTFGGGTKLEIKR
B10: LK-RB2-26 (antibody, human IgG4 S228P, kappa, V domains shown)
VH: QVQLKESGPGLVAPSQSLSITCTVSGFSLTSYGVHWVRQPPGKGLEWLGVIWAGGSTDYNAAFISRLNISKDISESQVFFRMNSLQTDDTAMYYCARDQMVRSAMDYWGQGTSVTVSS
VL: DIQMIQSPSSMFASLGDRVSLSCRASQGIRGNLDWYQQKPGGTIKLLIYSTSNLNSAVPSRFSGSGSGSDYSLTISNLESEDFADYYCLQRNASPYTFGGGTKLEIKR
B11: LK-RB1-11 (antibody, human IgG4 S228P, kappa, V domains shown)
VH: QVTLKESGPGILQPSQTLSLTCSFSGFSLKTSGMSVGWIRQPSGKGLEWLAHIWWNDDKYYNPVLKGRLTISKDTSNNLVFLKIASVVSTDTATYYCVRYGNSHGYWYFDVWGTGTTVTVSS
VL: NIVLTQSPASLAVSLGQRATISCRASESVDSYGNNFIHWYQQKPGQPPKVLIYYASNLEAGVPARFSGSGSRTDFTLTIDPVEAEDAATYYCQQNNEDPYTFGGGTKLEIER
B12: LK-RB2-32 (antibody, human IgG4 S228P, kappa, V domains shown)
VH: DVQLQESGPGLVKPSQSLSLTCSVTGYSITSGYYWNWIRQFPGNKLEWMGYISFDGSNHYNPSLRNRISITRDTFKNQFFLKLNSVTTEDTATFYCTRRDYNWFAYWGQGTLVTVSA
VL: DIVLTQSPVTLSVTPGDSVSLSCRASQNINKNLHWYQQRSHESPRLLIKYVSQSISGIPSRFSGSGSGTDFTLSINSVETEDFGMYFCQQSNSWPLTFGAGTKLELRR
B13: LK-RB2-41 (antibody, human IgG4 S228P, kappa, V domains shown)
VH: EVQLQLSGPELVKPGASVKMSCKASGYTFTDYNMHWVKQSHGKSLEWIGYINPNNGGTTYNQKFKGKATLTVNKSSSTAYMELRSLTSEDSAVYYCARAPYYGSSYLLAYWGQGTLVTVSA
VL: DIVMTQSHKFMSTSVGDRVSITCKASQDVSTAVAWYQQKPGQSPKLLIYSASYRYTGVPDRFTGSGSGTDFTFTISSVQAEDLAIYYCQQHYSIPWTFGGGTKLEIKR
B14: LK-RB2-29 (antibody, human IgG4 S228P, kappa, V domains shown)
VH: QVQLQQSGAELARPGASVKLSCKASGYTFTSYWMQWVKQRPGQGLEWIGAIYPGDGDTRYTQKFKGKATLTADKSSSTAYMQLSSLASEDSAVYYCARGYYGSSYADYFDYWGQGTTLTVSS
VL: DIQMTQSPASLSASVGETVTITCRASGNIHNYLAWYQQKQGKSPQLLVYNAKTLADGVPSRFSGSGSGTQYSLKINSLQPEDFGSYYCQHFWSTPPTFGGGTKLEIKR
B15: LK-RB2-42 (antibody, human IgG4 S228P, kappa, V domains shown)
VH: EFQLQQSGPELVKPGASVKISCKASGYSFTDYNMNWVKQSNGKSLDWIGIINPKYGTTAYNQKLRDKATLTVDQSSSTAYMQLNSLTSEDSAVYYCASLNWDEGFAYWGQGTLVTVSP
VL: DVLMTQTPLSLPVSLGDQASISCRSSQSIVHSNGNTYLEWYLQKPGQPPKLLIYKVSNRFSGVPERFSGSGSGTDFTLKINRVEAEDLGVYYCFQGSLVPPTFGGGTKLEIKR

Key:
[1] = target: Rhesus LILRB1 (NP_001035762.2) on CHOK1 cells (rhesus macaque) (UniProt F7H3G7); experiment: flow cytometry on CHOK1-rhesus LILRB1 (NP_001035762.2) cells
[2] = target: Rhesus LILRB1 (NP_001035762.2) on CHOK1 cells (rhesus macaque) (UniProt F7H3G7); experiment: cell based blocking assay on CHOK1-rhesus LILRB1 (NP_001035762.2) cells; blocked ligand not named
[3] = target: Cynomolgus LILRB2 on CHOK1 cells (cynomolgus); experiment: flow cytometry on CHOK1-cyno LILRB2 cells
[4] = target: Rhesus LILRB1 (NP_001035762.2) protein (rhesus macaque) (UniProt F7H3G7); experiment: ELISA on rhesus LILRB1 (NP_001035762.2) protein

| Binder | EC50 [3] [nM] | other results |
| --- | --- | --- |
| B1 |  | EC50 [1]: 29.2 nM; EC50 [2]: 2.42 nM; Top Inhibition (%) [2]: 15.9% |
| B2 |  | EC50 [1]: 158 nM; EC50 [2]: 1.42 nM; Top Inhibition (%) [2]: 45.4% |
| B3 | 2.14 |  |
| B4 | 2.3 |  |
| B5 | 2.03 |  |
| B6 |  | EC50 [1]: 24.1 nM; EC50 [2]: 4.56 nM; Top Inhibition (%) [2]: 88.1% |
| B7 | 1.04 |  |
| B8 | 1.59 |  |
| B9 | 1.48 |  |
| B10 | 2.11 |  |
| B11 |  | EC50 [4]: 0.08 nM |
| B12 | 5.72 |  |
| B13 | 1.5 |  |
| B14 | 2.09 |  |
| B15 | 2.86 |  |
